The target in series [1] is UGT1A4 (UDP-glucuronosyltransferase 1A4) (Homo sapiens, UniProt P22310). Nature of the series: (§1) Binding affinity against human UDP Glucuronosyltransferase 1A4 (UGT1A4). As to conditions: read-out: Km,app.
Substrate in series [2]: c1ccc(Nc2ccccc2)cc1
The description is as §1.

Substrate in series [3]: Nc1ccc(-c2ccccc2)cc1
The description is as §1.

Substrate in series [4]: CN1CCC(=C2c3ccccc3C=Cc3ccccc32)CC1
The description is as §1.

Substrate in series [5]: CN1CCN(C2=Nc3cc(Cl)ccc3Nc3ccccc32)CC1
The description is as §1.

Substrate in series [6]: CC1CC[C@H](C(C)C)[C@@H](O)C1
Described as §1.

Substrate in series [7]: CN(C)CCCN1c2ccccc2CCc2ccccc21
The description is as §1.

Substrate in series [8]: O=c1c(-c2ccc(O)cc2)coc2cc(O)ccc12
Described as §1.

Substrate in series [9]: Clc1ccc2c(c1)N=C(N1CCNCC1)c1ccccc1N2
The description is as §1.

Substrate in series [10]: Nc1ccc(-c2ccc(N)cc2)cc1
Described as §1.

Substrate in series [11]: Cc1ccc(C(C)C)cc1O
Described as §1.

Substrate in series [12]: CN1CCN(C2=Nc3ccccc3Oc3ccc(Cl)cc32)CC1
The series is described as §1.

Substrate in series [13]: [H][C@@]12CC[C@]3([H])[C@]([H])(CC[C@@]4(C)[C@@]3([H])CC[C@]4([H])[C@H](C)O)[C@@]1(C)CC[C@H](O)C2
Described as §1.

Substrate in series [14]: [H][C@@]12CC[C@]3([H])[C@]([H])(CC[C@]4(C)C(C)(O)CC[C@@]34[H])[C@@]1(C)CCC(O)C2
The series is described as §1.

Substrate in series [15]: C[C@@H]1CC[C@@]2(OC1)O[C@H]1C[C@H]3[C@@H]4CC[C@H]5C[C@@H](O)CC[C@]5(C)[C@H]4CC[C@]3(C)[C@H]1[C@@H]2C
Described as §1.

Substrate in series [16]: C[C@@H]1CC[C@@]2(OC1)O[C@H]1C[C@H]3[C@@H]4CC=C5C[C@@H](O)CC[C@]5(C)[C@H]4CC[C@]3(C)[C@H]1[C@@H]2C
The series is described as §1.

Substrate in series [17]: C[C@@H]1CC[C@@]2(OC1)O[C@H]1C[C@H]3[C@@H]4CC[C@@]5(C)C[C@@H](O)CC[C@]5(C)[C@H]4CC(=O)[C@]3(C)[C@H]1[C@@H]2C
The series is described as §1.

Substrate in series [18]: C=CCc1ccc(O)c(OC)c1
The description is as §1.

Substrate in series [19]: CN(C)CCC=C1c2ccccc2CCc2ccccc21
Described as §1.

Substrate in series [20]: O=[N+]([O-])c1ccc(O)cc1
The description is as §1.

Substrate in series [21]: CC1(C)[C@H]2CC[C@]1(C)[C@H](O)C2
The description is as §1.

Substrate in series [22]: CCOC(=O)Nc1ccc(NCc2ccc(F)cc2)cc1N
Described as §1.

Substrate in series [23]: Nc1ccccc1-c1ccccc1
Described as §1.

Substrate in series [24]: CN1CCC(=C2c3ccccc3CC(=O)c3sccc32)CC1
Described as §1.

As to `CN(C)CCCN1c2ccccc2Sc2ccc(Cl)cc21` [CHLORPROMAZINE], the Km in series [1] was 93 µM.

B1: UDP-glucuronosyltransferase 1A4 (Homo sapiens) (protein)
chain: MARGLQVPLPRLATGLLLLLSVQPWAESGKVLVVPTDGSPWLSMREALRELHARGHQAVVLTPEVNMHIKEEKFFTLTAYAVPWTQKEFDRVTLGYTQGFFETEHLLKRYSRSMAIMNNVSLALHRCCVELLHNEALIRHLNATSFDVVLTDPVNLCGAVLAKYLSIPAVFFWRYIPCDLDFKGTQCPNPSSYIPKLLTTNSDHMTFLQRVKNMLYPLALSYICHTFSAPYASLASELFQREVSVVDLVSYASVWLFRGDFVMDYPRPIMPNMVFIGGINCANGKPLSQEFEAYINASGEHGIVVFSLGSMVSEIPEKKAMAIADALGKIPQTVLWRYTGTRPSNLANNTILVKWLPQNDLLGHPMTRAFITHAGSHGVYESICNGVPMVMMPLFGDQMDNAKRMETKGAGVTLNVLEMTSEDLENALKAVINDKSYKENIMRLSSLHKDRPVEPLDLAVFWVEFVMRHKGAPHLRPAAHDLTWYQYHSLDVIGFLLAVVLTVAFITFKCCAYGYRKCLGKKGRVKKAHKSKTH
B1: the Km in [2] was 240 µM; in [3], 66 µM; in series [4] it was 150 µM; in series [5] it was 62 µM; in series [6] it was 470 µM; in series [7], 310 µM. Further, the Michaelis constant (Km) in series [8] is 400 µM; in series [9] it was 56 µM; in [10], 460 µM; in series [11], 1500 µM; in [12] it was 27 µM; in series [13], 7.3 µM. Further, the Km in series [14] is 16 µM; in [15] it was 7 µM; in series [16] it was 13 µM; in series [17], 18 µM; in [18], 1570 µM; in [19] it was 60 µM. In addition, the Km in [20] was 11.6 mM; in [21], 1100 µM; in [22] it was 322 µM; in [23] it was 47 µM; in series [24] it was 70 µM.

What is called Km is the concentration of substrate that gives half-maximal velocity.

These data come from ChEMBL document CHEMBL1136774, “Pharmacophore and quantitative structure-activity relationship modeling: complementary approaches for the rationalization and prediction of UDP-glucuronosyltransferase 1A4 substrate selectivity” (J Med Chem, 2003).
